Data: publication PMC3548785, “Identification of a Binding Site for ASF/SF2 on an RNA Fragment Derived from the Hepatitis delta Virus Genome”

What was measured:
His-ASF/SF2 [1] = molecular target: T1, His-ASF/SF2 (UniProt Q07955 1-248); experiment: intrinsic tryptophan fluorescence quenching; no appKD could be calculated; 100 mM KCl, 20 mM Tris-HCl pH 7.5, room temperature, 100 nM His-ASF/SF2, excitation 280 nm, emission 340 nm; settings: protein: recombinant; tags: C-terminal His6; hairpin
His-ASF/SF2 [2] = molecular target: T1, His-ASF/SF2; experiment: intrinsic tryptophan fluorescence quenching; no appKD; loss of binding stated; 100 mM KCl, 20 mM Tris-HCl pH 7.5, room temperature, 100 nM His-ASF/SF2, excitation 280 nm, emission 340 nm; settings: protein: recombinant; tags: C-terminal His6; hairpin
His-ASF/SF2 [3] = molecular target: T1, His-ASF/SF2; experiment: intrinsic tryptophan fluorescence quenching; apparent KD; 100 mM KCl, 20 mM Tris-HCl pH 7.5, room temperature, 100 nM His-ASF/SF2, excitation 280 nm, emission 340 nm; settings: protein: recombinant, tags: C-terminal His6

T1 sequence (Q07955 whole entry): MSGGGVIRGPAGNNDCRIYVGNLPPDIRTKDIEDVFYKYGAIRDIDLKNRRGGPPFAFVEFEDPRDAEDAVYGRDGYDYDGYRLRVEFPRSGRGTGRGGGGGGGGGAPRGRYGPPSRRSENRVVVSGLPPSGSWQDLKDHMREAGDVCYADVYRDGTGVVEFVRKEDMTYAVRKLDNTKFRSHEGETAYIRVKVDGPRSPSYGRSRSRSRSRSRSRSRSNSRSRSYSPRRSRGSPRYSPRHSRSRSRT

Binder | binding result (His-ASF/SF2 [1]) | Kd (His-ASF/SF2 [3]; hairpin) | further results
AGUCCUCAGUACUCUUACUCUUUUCUGUAAAGAGGAGACUGCUGGACU (structured_RNA) [R47G] | no binding | – | –
R177GΔASF (structured_RNA) RNA: GGAUCUCUUCCGCGGUUCUUCCUCGACUCGGCCCGGCUCAUCUCGGCUAGAGGCGGCAGUCCUCAGUACUCUUACUCUUUUCUGUAAAGAGGAGACUGCUGGACUCGCCGCCCGAGGCCGAGCCUGAGCCAAGUGCCGAGCGAGGAGACGCGGGUCAGCACC | – | – | binding result (His-ASF/SF2 [2]): no binding
R161G (structured_RNA) RNA: UCUCUCCCUCCGCGGUUCUUCCUCGACUCGGCCCGGCUCAUCUCGGCUAGAGGCGGCAGUCCUCAGUACUCUUACUCUUUUCUGUAAAGAGGAGACUGCUGGACUCGCCGCCCGAGGCCGAGCCUGAGCCAAGUGCCGAGCGAGGAGACGCGGGGGGAGGA | – | ~900 nM | –
R199G (structured_RNA) RNA: GGGACUGCUCGAGGAUCUCUUCUCUCCCUCCGCGGUUCUUCCUCGACUCGGCCCGGCUCAUCUCGGCUAGAGGCGGCAGUCCUCAGUACUCUUACUCUUUUCUGUAAAGAGGAGACUGCUGGACUCGCCGCCCGAGGCCGAGCCUGAGCCAAGUGCCGAGCGAGGAGACGCGGGGGGAGGAUCAGCACCCGAGAGGGGAUGU | – | – | Kd (His-ASF/SF2 [3]; rod-like hairpin): ~640 nM
R156G (structured_RNA) RNA: CUCCCUCCGCGGUUCUUCCUCGACUCGGCCCGGCUCAUCUCGGCUAGAGGCGGCAGUCCUCAGUACUCUUACUCUUUUCUGUAAAGAGGAGACUGCUGGACUCGCCGCCCGAGGCCGAGCCUGAGCCAAGUGCCGAGCGAGGAGACGCGGGGGGAG | no binding | – | –
R177G (structured_RNA) RNA: GGAUCUCUUCUCUCCCUCCGCGGUUCUUCCUCGACUCGGCCCGGCUCAUCUCGGCUAGAGGCGGCAGUCCUCAGUACUCUUACUCUUUUCUGUAAAGAGGAGACUGCUGGACUCGCCGCCCGAGGCCGAGCCUGAGCCAAGUGCCGAGCGAGGAGACGCGGGGGGAGGAUCAGCACC | – | ~870 nM | –
